Read-outs that look alike come from different tables or passages of the source.
Key:
Assay in all cases: CELISA, CHO-K1 transfectants; average of two experiments
[1] = molecular target: T1, human SIRPα variant 1 (human, UniProt P78324 31-504)
T1 construct: full length ORF on transfected CHO-K1 or HEK293 cells; entry includes the signal peptide; also called hSIRPαV1; SIRPαV1
Experimental: (§1) The binding specificity of antibody hSIRPα.50A to hSIRPα was compared antibody KWAR23 (Canadian Patent 2939293 A1), in a CELISA format. CHO-K1 cells were transiently transfected with hSIRPαV1, hSIRPαV2, hSIRPβ1, and hSIRPγ (GenBank accession: NM_018556.3) (SEQ ID NO: 39) cDNAs. Subsequently, hSIRPα binding was assessed by CELISA using CHO-K1.hSIRPαV1, CHO-K1.hSIRPαV2, CHO-K1.hSIRPβ1, and CHO-K1.hSIRPγ cells. Detection of bound antibody was performed with goat-anti-mouse IgG-HRP (Southern Biotech) for mouse antibodies including hSIRPα.50A and control antibodies or, alternatively, with goat-anti-human IgG-HRP conjugate (Jackson Immuno Research) for the KWAR23 antibody. KWAR23 (SEQ ID NO: 130; SEQ ID NO: 131) was expressed as a chimeric human IgG4 kappa antibody in CHO cells. As shown in FIG. 2 and the following Table 9, KWAR23 antibody cross-reacts with all members of the SIRP receptor family tested: it binds to hSIRPαV1, hSIRPαV2, hSIRPβ1, and hSIRPγ.
(§2) In addition, the specificity of hSIRPα.50A for all known of hSIRPα alleles (allelic variants as described by Takenaka et al., 2007, Nat Immunol. 8:1313-1323) was further investigated by CELISA using the same strategy as above. To this end, hSIRPα.50A binding was assessed using CHO-K1 cells that were transiently transfected with cDNAs encoding full length hSIRPαV1, hSIRPαV2, hSIRPαV3 (NA07056_V3) (SEQ ID NO: 43), hSIRPαV4 (NA11832_V4) (SEQ ID NO: 45), hSIRPαV5 (NA18502_V5) (SEQ ID NO: 47), hSIRPαV6 (NA18507_V6) (SEQ ID NO: 49), hSIRPαV8 (NA18570_V8) (SEQ ID NO: 51), and hSIRPαV9 (NA18943_V9) (SEQ ID NO: 53).

[2] = molecular target: T2, human SIRPα variant 2 (human, UniProt P78324 31-504)
T2 construct: full length ORF on transfected CHO-K1 cells; also called hSIRPαV2; SIRPαV2
Experimental: as §1, §2

[3] = molecular target: T3, hSIRPαV3 (NA07056_V3) (human, UniProt P78324 31-504)
T3 construct: also called human SIRPαV3
Experimental: as §1, §2

[4] = molecular target: T4, hSIRPαV4 (NA11832_V4) (human, UniProt P78324 31-504)
T4 construct: also called human SIRPαV4
T4 chain: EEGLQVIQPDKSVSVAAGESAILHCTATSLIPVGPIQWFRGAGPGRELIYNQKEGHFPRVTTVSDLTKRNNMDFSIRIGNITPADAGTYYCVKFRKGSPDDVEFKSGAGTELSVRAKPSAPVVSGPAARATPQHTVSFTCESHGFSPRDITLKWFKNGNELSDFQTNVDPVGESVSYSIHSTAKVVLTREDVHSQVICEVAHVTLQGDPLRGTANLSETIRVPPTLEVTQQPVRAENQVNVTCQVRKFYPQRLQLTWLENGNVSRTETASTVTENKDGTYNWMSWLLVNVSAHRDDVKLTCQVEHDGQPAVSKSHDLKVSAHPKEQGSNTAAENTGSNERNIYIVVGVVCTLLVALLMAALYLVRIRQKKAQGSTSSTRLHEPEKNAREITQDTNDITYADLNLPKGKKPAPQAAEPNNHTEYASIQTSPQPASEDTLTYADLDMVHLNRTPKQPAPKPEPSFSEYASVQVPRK
Experimental: as §1, §2

[5] = molecular target: T5, hSIRPαV5 (NA18502_V5) (human, UniProt P78324 31-504)
T5 construct: also called human SIRPαV5
Experimental: as §1, §2

[6] = molecular target: T6, hSIRPαV6 (NA18507_V6) (human, UniProt P78324 31-504)
T6 construct: also called human SIRPαV6
Experimental: as §1, §2

[7] = molecular target: T7, hSIRPαV9 (NA18943_V9) (human, UniProt P78324 31-504)
T7 construct: also called human SIRPαV9
Experimental: as §1, §2

[8] = molecular target: T1, human SIRPα variant 1; remark: listed apart in the source
Experimental: (§3) Binding of the humanized antibodies to hSIRPα was studied in CELISA format. Binding of the hSIRPα antibodies to human SIRPαV1, SIRPαV2, hSIRPβ1, and hSIRPγ was confirmed using CHO-K1 cells that had been transiently transfected with cDNA encoding the full length open reading frame of each of these respective targets subcloned into the pCI-neo vector. CHO-K1.hSIRPαV1, CHO-K1.hSIRPαV2, CHO-K1.hSIRPβ1, and CHO-K1.hSIRPγ cells were seeded in culture medium (DMEM-F12 (Gibco) supplemented with 5% New Born Calf Serum (BioWest) and Pen/Strep (Gibco)) in 96-well flat-bottom tissue culture plates and incubated at 37° C., 5% CO₂ and 95% humidity until cell layers were confluent. Subsequently, culture medium was removed and cells were incubated for 1 hour at 37° C., 5% CO₂ and 95% humidity with purified hSIRPα antibodies (10 μg/mL and dilutions thereof). Next, cells were washed with PBS-T and incubated for 1 hour at 37° C., 5% CO₂ and 95% humidity with goat-anti-human IgG-HRP conjugate (Jackson Immuno Research) or goat-anti-mouse IgG-HRP (Southern Biotech). Subsequently, cells were washed three times with PBS-T and anti-hSIRPα immunoreactivity was visualized with TMB Stabilized Chromogen (Invitrogen). Reactions were stopped with 0.5 M H₂SO₄ and absorbances were read at 450 and 610 nm. […] In Table 13 the EC50 values of the humanized hSIRPα antibodies are depicted.
(§4) Table 13: Binding of humanized and parental hSIRPα.50A antibodies to CHO-K1.hSIRPαV1, CHO-K1.hSIRPαV2, CHO-K1.hSIRPβ1, and CHO-K1.hSIRPγ cells.

[9] = molecular target: T2, human SIRPα variant 2; remark: listed apart in the source
Experimental: as §3, §4

T1 sequence (P78324 31-504 limits assumed, change not shown): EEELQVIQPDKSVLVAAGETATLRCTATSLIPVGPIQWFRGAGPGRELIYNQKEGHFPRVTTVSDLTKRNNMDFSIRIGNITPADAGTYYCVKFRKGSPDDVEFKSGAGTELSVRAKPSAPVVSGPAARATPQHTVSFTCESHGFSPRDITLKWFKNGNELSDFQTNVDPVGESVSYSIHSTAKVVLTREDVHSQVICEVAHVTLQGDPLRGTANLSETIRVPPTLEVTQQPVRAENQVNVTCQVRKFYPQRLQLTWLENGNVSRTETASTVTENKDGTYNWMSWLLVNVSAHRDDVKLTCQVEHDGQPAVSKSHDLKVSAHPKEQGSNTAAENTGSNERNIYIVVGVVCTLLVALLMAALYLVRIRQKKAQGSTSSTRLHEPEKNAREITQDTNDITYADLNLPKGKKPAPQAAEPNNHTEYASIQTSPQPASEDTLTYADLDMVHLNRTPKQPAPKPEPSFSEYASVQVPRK
T2 sequence (P78324 other isoform, or with tags, fused parts or gaps mutant limits assumed): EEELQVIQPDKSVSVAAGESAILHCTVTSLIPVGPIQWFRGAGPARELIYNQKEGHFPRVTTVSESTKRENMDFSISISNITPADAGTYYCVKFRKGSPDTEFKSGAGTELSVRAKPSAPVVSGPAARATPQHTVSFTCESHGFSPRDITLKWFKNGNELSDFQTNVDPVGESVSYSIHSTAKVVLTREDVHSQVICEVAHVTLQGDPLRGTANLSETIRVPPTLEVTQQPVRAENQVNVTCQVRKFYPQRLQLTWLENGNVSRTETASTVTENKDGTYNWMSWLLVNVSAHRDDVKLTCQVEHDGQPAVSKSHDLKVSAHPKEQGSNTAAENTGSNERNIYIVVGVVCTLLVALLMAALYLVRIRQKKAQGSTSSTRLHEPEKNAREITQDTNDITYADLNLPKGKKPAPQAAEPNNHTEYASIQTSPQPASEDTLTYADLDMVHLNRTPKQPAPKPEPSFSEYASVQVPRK
T3 sequence (P78324 other isoform, or with tags, fused parts or gaps limits assumed): as the sequence (P78324 other isoform, or with tags, fused parts or gaps mutant limits assumed) above, with H24L counted along it
T7 sequence (P78324 31-504 G109S limits assumed): as the sequence (P78324 31-504 limits assumed, change not shown) above, with G79S counted along it
T6 sequence (P78324 31-504 S105P limits assumed): as the sequence (P78324 31-504 limits assumed, change not shown) above, with S75P counted along it
T5 sequence (P78324 other isoform, or with tags, fused parts or gaps limits assumed): as the sequence (P78324 31-504 limits assumed, change not shown) above, with S12F counted along it

B1: hSIRPα.50A (antibody, V domains shown)
VH: QVQLQQSGPELVKPGASVRISCKASGFTFTNYYIHWVKQRPGQGLEWIGWIYPGNVNTKYNEKFKAKATLTADKSSTTAYMQLSSLASEDSAVYFCARPTIIATDFDVWGAGTTVTVSS
VL: DIVMTQSHKFMSTSVGDRVNITCKASQGVGTAVGWYQQKPGQSPRLLIYWASTRHTGVPDRFTGSGSGTDFSLAISNVQSEDLADYFCQQYSTYPFTFGGGTNLEIK
notes: light chain constant domain not tied; also called mouse hSIRPα.50A; hSIRPα.50A.mIgG1
What does the source list for B1?
EC50 [1]: 936 pM; EC50 [2]: 665 pM; EC50 [3]: 688 pM; EC50 [4]: 824 pM; EC50 [5]: 765 pM; EC50 [6]: 954 pM; EC50 [7]: 733 pM; EC50 [8]: 1360 pM; EC50 [9]: 1300 pM

Reference: patent publication US20180312587A1 (ADURO BIOTECH HOLDINGS EUROPE B V, published 2018)
